From patent EP4792891A2 (LTZ Therapeutics Inc., dated 2026) come the findings set out here.

The target of one test is EGFR on DLD-1 cells (UniProt P00533). The test can be described thus: cell-based or functional assay.
Test [1] deals with T1, CD79b on cells (Ramos cells, endogenous B cells) (human, UniProt P40259 29-229).
T1 sequence (looked up): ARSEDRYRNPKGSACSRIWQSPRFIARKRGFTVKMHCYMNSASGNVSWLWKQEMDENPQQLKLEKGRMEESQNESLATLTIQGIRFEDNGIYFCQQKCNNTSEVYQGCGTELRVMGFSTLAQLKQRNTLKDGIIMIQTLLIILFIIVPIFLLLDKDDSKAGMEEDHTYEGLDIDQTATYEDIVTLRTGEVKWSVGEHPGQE
The test is described as follows: cell-based or functional assay.

Necitumumab (antibody) yielded an IC50 (nM), DLD-1 cell killing by M0 macrophages with EGFR on DLD-1 cells of 0.0574 nM.

B1: CD79b/5C7 (1+1 B) Fc-optimized (bispecific antibody, human IgG1, kappa)
heavy 1: EQQLVETGGGLIQPGGSLRLSCAASGFTINIDYWISWVRQAPGKGLEWIGIIDPGDGTTYFAIWVSGRFTISFDNSKNTVYLQMNSLRAEDTAVYFCVREFSASAYQYDLWGPGTLVTVSSASTKGPSVFPLAPSSKSTSGGTAALGCLVKDYFPEPVTVSWNSGALTSGVHTFPAVLQSSGLYSLSSVVTVPSSSLGTQTYICNVNHKPSNTKVDKKVEPKSCDKTHTCPPCPAPELLAGPSVFLFPPKPKDTLMISRTPEVTCVVVDVSHEDPEVKFNWYVDGVEVHNAKTKPREEQYNSTYRVVSVLTVLHQDWLNGKEYKCKVSNKALPLPEEKTISKAKGQPREPQVYTLPPSRDELTKNQVSLSCAVKGFYPSDIAVEWESNGQPENNYKTTPPVLDSDGSFFLVSKLTVDKSRWQQGNVFSCSVMHEALHNHYTQKSLSLSPGK
heavy 2: DIQMTQSPSSLSASVGDRVTITCQASESVDRNNRLAWFQQKPGKPPKLLIYTTSTLASGVPSRFSGSGSGTDFTLTISSLQPEDVATYYCAGYRGAHTDGDAFGGGTKVEIKGGGGSGGGGSGGGGSGGGGSEQQLVESGGGLVKPGGSLRLSCAASGFSFSRSSYMCWVRQAPGKGLEWIGCLSVGDGHTYYASWAKGRFTISKDSAKNSVYLQMNSLRAEDTAVYFCARAPSYSGDGGHGYDLWGPGTLVTVSSDKTHTCPPCPAPELLAGPSVFLFPPKPKDTLMISRTPEVTCVVVDVSHEDPEVKFNWYVDGVEVHNAKTKPREEQYNSTYRVVSVLTVLHQDWLNGKEYKCKVSNKALPLPEEKTISKAKGQPREPQVYTLPPSRDELTKNQVSLWCLVKGFYPSDIAVEWESNGQPENNYKTTPPVLDSDGSFFLYSKLTVDKSRWQQGNVFSCSVMHEALHNHYTQKSLSLSPGK
light: ELVMTQSPATLSVSPGERATLSCRASEDIENYLAWYQQKPGQPPRLLIYRASTLSSGVPARFSGSGSGTEFTLTISSLQSEDFAVYYCQQGYRNSNVDNPFGGGTKVEIKRTVAAPSVFIFPPSDEQLKSGTASVVCLLNNFYPREAKVQWKVDNALQSGNSQESVTEQDSKDSTYSLSSTLTLSKADYEKHKVYACEVTHQGLSSPVTKSFNRGEC
Take B1: in test [1], the “IC50 (nM), killing of endogenous B cells by PBMCs, Donor 234” value turned out to be 0.0453 nM.

B2: CD79b/5C7 (2+2 B) Fc-optimized (bispecific antibody, human IgG1, kappa)
heavy: EQQLVETGGGLIQPGGSLRLSCAASGFTINIDYWISWVRQAPGKGLEWIGIIDPGDGTTYFAIWVSGRFTISFDNSKNTVYLQMNSLRAEDTAVYFCVREFSASAYQYDLWGPGTLVTVSSASTKGPSVFPLAPSSKSTSGGTAALGCLVKDYFPEPVTVSWNSGALTSGVHTFPAVLQSSGLYSLSSVVTVPSSSLGTQTYICNVNHKPSNTKVDKKVEPKSCDKTHTCPPCPAPELLAGPSVFLFPPKPKDTLMISRTPEVTCVVVDVSHEDPEVKFNWYVDGVEVHNAKTKPREEQYNSTYRVVSVLTVLHQDWLNGKEYKCKVSNKALPLPEEKTISKAKGQPREPQVYTLPPSRDELTKNQVSLTCLVKGFYPSDIAVEWESNGQPENNYKTTPPVLDSDGSFFLYSKLTVDKSRWQQGNVFSCSVMHEALHNHYTQKSLSLSPGGGGGSGGGGSGGGGSDIQMTQSPSSLSASVGDRVTITCQASESVDRNNRLAWFQQKPGKPPKLLIYTTSTLASGVPSRFSGSGSGTDFTLTISSLQPEDVATYYCAGYRGAHTDGDAFGCGTKVEIKGGGGSGGGGSGGGGSGGGGSEQQLVESGGGLVKPGGSLRLSCAASGFSFSRSSYMCWVRQAPGKCLEWIGCLSVGDGHTYYASWAKGRFTISKDSAKNSVYLQMNSLRAEDTAVYFCARAPSYSGDGGHGYDLWGPGTLVTVSS
light: B1 light
For B2, in test [1], the “IC50 (nM), killing of endogenous B cells by PBMCs, Donor 367” value came out at 0.0168 nM and the “IC50 (nM), killing of endogenous B cells by PBMCs, Donor 431” value was determined as 0.0168 nM.
